The results in this text go back to publication doi:10.64898/2025.12.03.692196.

The stoichiometry N is a count of units in the complex or per binding partner.

The target in assay [1] is YRDC_(I178T), GAMOS-associated variant of the ΔN43 construct (human). Briefly: mass photometry.
Assay [2] addresses YRDC_(A41V), GAMOS-associated variant of the ΔN43 construct (human). Briefly: mass photometry.
For assay [3] the target is unchanged. Briefly: native gel or EMSA. On the technique in general: A gel shift assay detects complexes by their altered migration in electrophoresis.
The target of assay [4] is human YRDC lacking the N-terminal 43 residues (ΔN43 construct) (human). Briefly: mass photometry.
For assay [5] the target is unchanged. Briefly: native MS.
For assay [6] the target is unchanged. Briefly: native gel or EMSA.
Assay [7] addresses YRDC_(ΔL222), GAMOS-associated variant of the ΔN43 construct (human). Briefly: mass photometry.
Assay [8] shares this target. Briefly: native gel or EMSA.

In assay [1], “YRDC_(I178T), GAMOS-associated variant of the ΔN43 construct (enzyme)” registered a dimer fraction of 19%.
As to “YRDC_(A41V), GAMOS-associated variant of the ΔN43 construct (enzyme)”, in assay [2], the tetramer fraction is 24% and the trimer fraction was determined as 28%. Moreover, the stoichiometry N in assay [3] stood at 2.
On to “human YRDC lacking the N-terminal 43 residues (ΔN43 construct) (enzyme)”, for which the stoichiometry N in assay [4], in assay [5] and in assay [6] was 2 throughout.
In assay [7], “YRDC_(ΔL222), GAMOS-associated variant of the ΔN43 construct (enzyme)” returned a tetramer fraction of 27% and a trimer fraction of 44%. Moreover, the stoichiometry N in assay [8] stood at 2.
